Test results published in US5458874A, “Method of increasing monocyte chemotaxis with CAP37 and monocyte chemotactic portions thereof” (Emory University, priority 1992, dated 1995).
Entries after “also recorded” stand apart in the source; their conditions may differ.

Assays:
[1] = system: PMN; assay: PMN chemotaxis, modified Boyden chamber technique; format: cell-based, human; settings: range employed in these experiments
Procedure: (§1) Chemotaxis was measured using the modified Boyden chamber technique (Snyderman et al.). The leading front method (Zigmond et al.) was used to assess migration of monocytes and lymphocytes through a 8 μm filter (Millipore Corporation, Bedford, Mass.). PMN chemotaxis was measured using a 3 μm filter (Millipore). The purified CAP37 protein (Example 1) used in chemotaxis assays were endotoxin-free as determined by the Limulus Amoebocyte Lysate Assay (Whittaker Bioproducts, Inc., Walkersville, Md.). The dilutions of CAP37 and N-formyl-methionyl-leucyl-phenylalanine (FMLP) were made in Geys buffer (Gibco) containing 2% endotoxin-free bovine serum albumin (BSA). Geys buffer containing 2% BSA served as the negative control, and a […] solution of FMLP as the positive control.
(§2) The chambers were incubated in a humidified atmosphere (6.2% CO2) for 2 hours when testing monocytes and lymphocytes, and for 30 minutes when testing PMNs. The filters were then removed and processed as previously described (Snyderman et al.). The cells were viewed using oil immersion and the distance the cells had migrated into the filter was determined over five different fields on the same slide (Zigmond et al.). Triplicate assays were performed for each experimental point.

[2] = system: lymphocytes; assay: Lymphocyte chemotaxis, modified Boyden chamber technique; format: cell-based, human; settings: range employed in these experiments
Procedure: as §1, §2

[3] = system: rabbit monocytes; assay: Rabbit monocyte chemotaxis; format: cell-based; settings: 1000 ng/ml (2.7×10^-8 M)
Procedure: Peripheral blood mononuclear cells from adult female rabbits, were separated on a 61% PERCOLL (Pharmacia) gradient (Chambers et al.). This technique separated the mononuclear cells from the RBC and PMNs. No further separation of monocytes from lymphocytes was undertaken with the rabbit blood.
as §1
as §2, with “The filters were then removed and processed as previously described (Snyderman et al.).” left out, “Triplicate assays were performed for each experimental point.” left out

[4] = system: rabbit PMN; assay: Rabbit PMN chemotaxis; format: cell-based
Procedure: as §1, §2

[5] = system: monocytes; assay: Checkerboard assay (chemokinesis); format: cell-based, human
[6] = system: Lipid A from S. minnesota R595; Lipid A from S. typhimurium Re mutant; assay: ELISA, binding of CAP37 to Lipid A; settings: CAP37 at 120 ng/well; Lipid A 0 to 50 μg/ml
Procedure: The LPS from S. minnesota wild type, S. minnesota Re mutant, Lipid A from S. minnesota R595, and Lipid A from S. typhimurium Re mutant were applied to microtiter wells at concentrations ranging from 0 to 50 μg/ml and incubated overnight. The trays were then incubated with CAP37 at 120 ng/well for 1 hour at 37° C. The next incubation was with a rabbit antiserum against CAP37 (1:400 dilution) and the color development was as previously described (Pereira et al., 1989) and the absorbance was read at 492 nm.

[7] = system: Re LPS from Salmonella; assay: Neutralization of LPS activity, limulus amebocyte lysate (LAL) assay, Re LPS; format: biochemical
Procedure: Further, the neutralization of LPS activity, as assayed by the limulus amebocyte lysate (LAL) assay, by CAP37 was measured. CAP37 was diluted to the desired concentrations (from 6.2 ng/ml to 500 ng/ml) in geys buffered saline pH 7 (GIBCO). To this wild type LPS (RIBI IMMUNOCHEM) or Re LPS from Salmonella (David Morrison, Kansas Medical Center) was added so that the final concentrations were 0.1, 0.5, 1.0 and 2.0 ng/ml LPS. The tubes were incubated at 37° C. for between 30 to 60 minutes and then assayed in the chromogenic LAL assay, using polymyxin E as a control.
As discussed in Example 11, peptides can be screened for lipopolysaccharide neutralizing capacity using the LAL assay also. The CAP37 peptide was diluted to the desired concentrations (from 125 ng/ml to 4000 ng/ml) in geys buffered saline pH 7 (GIBCO). To this is added the wild type LPS (RIBI IMMUNOCHEM) or Re LPS from Salmonella (David Morrison, Kansas Medical Center) so that the final concentration is 0.1, 0.5, and 1.0 ng/ml LPS. The tubes were incubated at 37° C. for between 30 to 60 minutes and then assayed in the chromogenic LAL assay.

[8] = system: Salmonella SH7426; assay: Bactericidal assay; format: cell-based
Procedure: (§3) An overnight culture of Salmonella typhimurium (or other microorganism of interest, if desired) is set up by inoculating one colony in 5 ml of LB Broth (LB Broth consists of 10 g BACTO tryptone (DIFCO), 5 g BACFO yeast (DIFCO) and 5 g NaCl made up to 1 L with endotoxin free water; add 15 g of BACTO agar (DIFCO) to this broth to make LB agar (autoclave). The culture is incubated at 37° C. with rotation. 100 μl of this overnight culture is then transferred to 5 ml of fresh LB Broth and incubated at 37° C. with rotation for 2 hours. Four ml of this log phase culture is then transferred to a sterile cuvette and the optical density is read at […]. Dilutions of the microorganism are then made in tryptone saline (5 g BAOTO tryptone (DIFCO) and 5 g NaCl made up to 1 L with endotoxin free water, pH 5.5) to give a final concentration of 5×10^3 organisms/ml (an O.D. reading of 0.25 at 520 mm is equivalent to 1×10^8 organisms/ml). The microorganisms are placed at 4° C. until ready to be used.
(§4) The stock solutions of peptides are stored at -20° C. at concentrations of 1 mg/ml of endotoxin-free water. The peptide is diluted out in tryptone saline to the desired concentration. 100 μl of the peptide is added to each well of the microtitre plate (Corning) and then 100 μl of the bacterial suspension (well vortexed) is added. Each assay point is set up in triplicate. 100 μl of a control, consisting of bacteria and tryptone saline (T=0) in the absence of peptide is plated out on LB agar plates. The microliter plate is then incubated at 37° C. for 1 hour. At the end of the incubation time, 100 μl of each sample is plated out on LB agar plates. The T=60 control (consisting of bacteria and tryptone saline in the absence of peptide) is plated out last. The plates are incubated overnight, and the number of colony forming units (CFU) are determined.
(§5) The % killed is determined as follows: [formula]

[9] = system: Salmonella SH7518; assay: Bactericidal assay; format: cell-based, Salmonella typhimurium; settings: Salmonella SH7518
Procedure: as §3, §4, §5

[10] = system: Salmonella LT2; settings: (Shafer, 1986); cited from earlier work
[11] = system: E. coli; settings: (Shafer, 1986); cited from earlier work
[12] = system: Ps. aeruginosa; settings: (Shafer, 1986); cited from earlier work
[13] = system: P. mirabilis Re45; settings: (Shafer, 1986); cited from earlier work

B1: CAP37: granule-associated cationic protein (mol. wt. 37,000 daltons) from human PMN, 222 amino acid mature protein (protein)
chain: IVGGRKARPRQFPFLASIQNQGRHFCGGALIHARFVMTAASCFQSQNPGVSTVVLGAYDLRRRERQSRQTFSISSMSENGYDPQQNLNDLMLLQLDREANLTSSVTILPLPLQNATVEAGTRCQVAGWGSQRSGGRLSRFPRFVNVTVTPEDQCRPNNVCTGVLTRRGGICNGDGGTPLVCEGLAHGVASFSLGPCGRGPDFFTRVALFRDWIDGVLNNPGP
effect on PMN chemotaxis [1]: did not have any effect
effect on lymphocyte chemotaxis [2]: did not have any effect
chemotactic for rabbit monocytes [3]: chemotactic
chemotactic response of rabbit PMN [4]: did not show a chemotactic response
chemokinetic effect on monocytes [5]: some chemokinetic effect
binding to Lipid A (ELISA) [6]: capable of binding LPS and, in particular, Lipid A; also recorded: able to bind to Lipid A better than wild type LPS
neutralization of Re LPS activity (LAL assay) [7]: significantly neutralized LPS activity
% survival with CAP 37 [8]: 64.3%
% survival with CAP 37 [9]: 10.9%
% survival with CAP 37 [10]: 43%
% survival with CAP 37 [11]: 4%
% survival with CAP 37 [12]: 36%
% survival with CAP 37 [13]: 100%
